We go through three molecules from article PMC5901963 (Nature, 2017).

The target in series [1] is bacTMEM175 from Chryseobacterium sp (Chryseobacterium sp). Put plainly: cross-linking.
Series [2] has as its target bacTMEM175 from Streptomyces collinus (Streptomyces collinus). Put plainly: cross-linking.
The series “crystal structure” concerns the molecule itself. The series can be described thus: crystal structure.

With “bacTMEM175 from Chryseobacterium sp (natural protein)”, in series [1], the stoichiometry N (usually a count of units in the complex or per binding partner) was determined as 4.

As for “bacTMEM175 from Streptomyces collinus (natural protein)”, the stoichiometry N in series [2] came out at 4.

B1: TMEM175 from Chamaesiphon minutus (CmTMEM175) (natural protein, UniProt K9UJK2 1-203, looked up)
chain: MVEAPEQSETGRIEAFSDGVFAIAITLLVLEIKVPQHKIVETVGLVSSLLSLWPSYLAFLTSFASILVMWVNHHRIFSLVARTDHAFFYWNGLLLMLVTFVPFPTALLAEYLIHPQARVAASVYAGIFLAIAIVFNRLWKHAATADRLLAQKADRHEVDAITKQYRFGPGLYLVAFALSFISVWLSVGVCFVLAIYFALRSNA
As to B1, the “stoichiometry N” value in “crystal structure” was found to be 4.
